Results taken from CN113388031A (SHANGHAI INSTITUTE FOR ADVANCED STUDY OF ZHEJIANG UNIV, dated 2021).

How the values were obtained:
[1] = molecular target: SARS-CoV-2突变株501Y.V2 (B.1.351) S蛋白 (spike protein of 501Y.V2, on live virus) (SARS-CoV-2 501Y.V2 (B.1.351), UniProt P0DTC2 14-1273); assay: cell-based or functional assay
[2] = molecular target: SARS-CoV-2突变株D614G S蛋白 (spike protein of the D614G mutant strain, on live virus) (SARS-CoV-2 D614G mutant strain, UniProt P0DTC2 14-1273); assay: cell-based or functional assay

B1: 单克隆抗体35B5 (monoclonal antibody 35B5) (antibody, V domains shown, not shown: large carriers)
VH: QVQLLESGGGLVQPGRSLRLSCAASGFTFDDYAMHWVRQAPGKGLEWVSGVSWNSGTIGYADSVKGRFTISRDNAKNSLYLHMRSLRAEDTALYYCAKAVEMVRGLMGLGADPEYGMDVWGQGTTVTVSS
VL: not shown
IC50, live SARS-CoV-2 neutralisation on Vero E6 cells (plaque / focus assay) [1]: 13 ng/mL
IC50, live SARS-CoV-2 neutralisation on Vero E6 cells (plaque / focus assay) [2]: 7.28 ng/mL
